Substrate in data set [1]: CC[C@H](C)[C@H](NC(=O)[C@@H](NC(=O)[C@H](CC(=O)O)NC(=O)CNC(=O)[C@H](C)NC(=O)[C@H](C)NC(=O)[C@@H]1CCCN1C(=O)[C@H](C)NC(=O)[C@H](CC(C)C)NC(=O)[C@H](CC(C)C)NC(=O)[C@@H](NC(=O)[C@H](CC(C)C)NC(=O)[C@H](C)NC(=O)[C@@H](N)CC(=O)O)[C@@H](C)O)[C@@H](C)O)C(=O)N[C@H](C(=O)N[C@@H](CO)C(=O)N[C@@H](CC(C)C)C(=O)N[C@@H](CC(=O)O)C(=O)N[C@@H](Cc1ccccc1)C(=O)O)[C@@H](C)CC
Put plainly: (§1) Hydroxylation activity of human PHD2.

Substrate in data set [2]: CC[C@H](C)[C@H](NC(=O)[C@H](Cc1ccc(O)cc1)NC(=O)[C@@H]1CCCN1C(=O)[C@H](C)NC(=O)[C@H](CC(C)C)NC(=O)[C@H](CCSC)NC(=O)[C@H](CCC(=O)O)NC(=O)[C@H](CC(C)C)NC(=O)[C@H](CC(=O)O)NC(=O)[C@H](CC(C)C)NC(=O)[C@@H](N)CC(=O)O)C(=O)N1CCC[C@H]1C(=O)N[C@@H](CCSC)C(=O)N[C@@H](CC(=O)O)C(=O)N[C@@H](CC(=O)O)C(=O)N[C@@H](CC(=O)O)C(=O)N[C@@H](Cc1ccccc1)C(=O)N[C@@H](CCC(N)=O)C(=O)N[C@@H](CC(C)C)C(=O)O
The data set is described as §1.

The source of these data is ChEMBL document CHEMBL1156801, “Using NMR solvent water relaxation to investigate metalloenzyme-ligand binding interactions” (J Med Chem, 2010).

B1: Egl nine homolog 1 (Homo sapiens), Q9GZT9 (protein)
chain: MANDSGGPGGPSPSERDRQYCELCGKMENLLRCSRCRSSFYCCKEHQRQDWKKHKLVCQGSEGALGHGVGPHQHSGPAPPAAVPPPRAGAREPRKAAARRDNASGDAAKGKVKAKPPADPAAAASPCRAAAGGQGSAVAAEAEPGKEEPPARSSLFQEKANLYPPSNTPGDALSPGGGLRPNGQTKPLPALKLALEYIVPCMNKHGICVVDDFLGKETGQQIGDEVRALHDTGKFTDGQLVSQKSDSSKDIRGDKITWIEGKEPGCETIGLLMSSMDDLIRHCNGKLGSYKINGRTKAMVACYPGNGTGYVRHVDNPNGDGRCVTCIYYLNKDWDAKVSGGILRIFPEGKAQFADIEPKFDRLLFFWSDRRNPHEVQPAYATRYAITVWYFDADERARAKVKYLTGEKGVRVELNKPSDSVGKDVF
One may read the Km as the concentration of substrate that gives half-maximal velocity. As for B1, the figures for the Km in data set [1] and in data set [2] were 44 µM and 37 µM, respectively.
